Data on 2 compounds can be found in PMC11974786 (bioRxiv, 2025).

In test [1] the target is OptS from Klebsiella pneumoniae strain KP67 (Klebsiella pneumoniae strain KP67). Description: SEC. (In general: SEC sorts molecules by how far they enter the pores of the column.)
The target is the same in test [2]. Description: SEC. The source holds these as a separate data set.
Test [3] has the same target. Put plainly: crystal structure.
Another test has as its target T1, KpOptS (Klebsiella pneumoniae, UniProt A0A2G9LI54).
T1 sequence (A0A2G9LI54 1-119): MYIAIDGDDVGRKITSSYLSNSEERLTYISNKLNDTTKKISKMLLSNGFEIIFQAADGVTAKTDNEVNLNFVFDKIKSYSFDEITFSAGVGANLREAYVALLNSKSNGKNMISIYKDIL
Description: HPLC and LC-MS product analysis. Format: biochemical. Conditions: 100 μM OptS, 1 mM MnCl2, 10 mM MgSO4, pH 7.4, 100 mM NaCl.

For “OptS from Klebsiella pneumoniae strain KP67 (enzyme)”, the stoichiometry N in test [1] is 4; in test [2] it was over 3; in test [3], 4.

With `Nc1ncnc2c1ncn2[C@@H]1O[C@H](COP(=O)(O)OP(=O)(O)OP(=O)(O)O)[C@@H](O)[C@H]1O` [ATP], the “HPLC and LC-MS product analysis” value on KpOptS was “The largest abundance product observed was derived from ATP”.

The stoichiometry N is a count of units in the complex or per binding partner.
